Source: patent US20260242478A1 (published 2026)
Where no end group is shown, it is not given here.

B1: Phage-900 (Peptide-87 library clone, YCDGHSPAYIWKCL) (peptide)
peptide: YCDGHSPAYIWKCL
notes: Tested as clonal phage supernatant
B2: Phage-895 (Peptide-87 library clone, YCAGHLQEYMQKCL) (peptide)
peptide: YCAGHLQEYMQKCL
notes: as for B1
B3: Phage-883 (peptide)
peptide: YCAGHSAEYMWKCL
modifications: cysteine pairing not given here; also: fused to phage pIII
notes: not shown: pIII filament protein of the bacteriophage to which the peptide is fused
B4: Phage-882 (peptide)
peptide: YCDGHLVEYRGKCL
modifications: cysteine pairing not given here; also: fused to phage pIII
notes: as for B3
B5: Phage-881 (peptide)
peptide: YCDGHSREYMVKCL
modifications: cysteine pairing not given here; also: fused to phage pIII
notes: as for B3
B6: Phage-904 (Peptide-87 library clone, YCDGHSSLYMHKCL) (peptide)
peptide: YCDGHSSLYMHKCL
notes: as for B1
B7: Phage-887 (peptide)
peptide: YCDGHSLAYIAKCL
modifications: cysteine pairing not given here; also: fused to phage pIII
notes: as for B3
B8: Phage-880 (peptide)
peptide: YCAGHLPEYLDKCL
modifications: cysteine pairing not given here; also: fused to phage pIII
notes: as for B3
B9: Phage-891 (peptide)
peptide: YCDGHSWEYMEKCL
modifications: cysteine pairing not given here; also: fused to phage pIII
notes: as for B3
B10: Phage-898 (Peptide-87 library clone, YCDGHAWEYMTKCL) (peptide)
peptide: YCDGHAWEYMTKCL
notes: as for B1
B11: Phage-867 (peptide)
peptide: YCSGHLPEYMGKCL
modifications: cysteine pairing not given here; also: fused to phage pIII coat protein (sequence and linker not given here)
notes: not shown: pIII coat protein of the bacteriophage to which the peptide is fused
B12: Phage-885 (peptide)
peptide: YCAGHSMEYMAKCL
modifications: cysteine pairing not given here; also: fused to phage pIII
notes: as for B3
B13: Phage-901 (Peptide-87 library clone, YCDGHSEQYMSKCL) (peptide)
peptide: YCDGHSEQYMSKCL
notes: as for B1
B14: Phage-897 (Peptide-87 library clone, YCEGHKPEYMQKCL) (peptide)
peptide: YCEGHKPEYMQKCL
notes: as for B1
B15: Phage-874 (peptide)
peptide: YCDGHLSEYMAKCL
notes: as for B11
B16: Phage-878 (peptide)
peptide: YCDGHAAEYMDKCL
notes: as for B11
B17: Phage-888 (peptide)
peptide: YCAGHTQEYMYKCL
modifications: cysteine pairing not given here; also: fused to phage pIII
notes: as for B3
B18: Phage-886 (peptide)
peptide: YCDGHLPEYFLKCL
modifications: cysteine pairing not given here; also: fused to phage pIII
notes: as for B3
B19: Phage-872 (peptide)
peptide: YCDGHAIQYIGKCL
notes: as for B11
B20: Phage-902 (Peptide-87 library clone, YCDGHAKEYMDKCL) (peptide)
peptide: YCDGHAKEYMDKCL
notes: as for B1
B21: Phage-876 (peptide)
peptide: YCDGHLQIYLWKCL
notes: as for B11
B22: Phage-894 (Peptide-87 library clone, YCDGHLPVYLEKCL) (peptide)
peptide: YCDGHLPVYLEKCL
notes: as for B1
B23: Phage-871 (peptide)
peptide: YCDGHTQAYIQKCL
notes: as for B11
B24: Phage-879 (peptide)
peptide: YCEGHSVQYMQKCL
notes: as for B3
B25: Phage-877 (peptide)
peptide: YCQGHLPVYMEKCL
notes: as for B11
B26: Phage-884 (peptide)
peptide: YCDGHLQIYMHKCL
modifications: cysteine pairing not given here; also: fused to phage pIII
notes: as for B3
B27: Phage-866 (peptide)
peptide: YCDGHLPEYIFKCL
modifications: cysteine pairing not given here; also: fused to phage pIII coat protein (sequence and linker not given here)
notes: as for B11
B28: Phage-892 (Peptide-87 library clone, YCAGHSPLYMLKCL) (peptide)
peptide: YCAGHSPLYMLKCL
notes: as for B1
B29: Phage-893 (Peptide-87 library clone, YCEGHSAEYMQKCL) (peptide)
peptide: YCEGHSAEYMQKCL
notes: as for B1
B30: Phage-899 (Peptide-87 library clone, YCEGHSPWYMNKCL) (peptide)
peptide: YCEGHSPWYMNKCL
notes: as for B1
B31: Phage-903 (Peptide-87 library clone, YCDGHSTEYMEKCL) (peptide)
peptide: YCDGHSTEYMEKCL
notes: as for B1
B32: Phage-869 (peptide)
peptide: YCAGHSAEYMAKCL
notes: as for B11
B33: Phage-868 (peptide)
peptide: YCDGHAEEYLWKCL
modifications: cysteine pairing not given here; also: fused to phage pIII coat protein (sequence and linker not given here)
notes: as for B11
B34: Phage-890 (peptide)
peptide: YCEGHLPQYFMKCL
modifications: cysteine pairing not given here; also: fused to phage pIII
notes: as for B3
B35: Phage-875 (peptide)
peptide: YCEGHSEMYMKKCL
notes: as for B11
B36: Phage-889 (peptide)
peptide: YCEGHAQEYMSKCL
modifications: cysteine pairing not given here; also: fused to phage pIII
notes: as for B3
B37: Phage-896 (Peptide-87 library clone, YCDGHAIEYMAKCL) (peptide)
peptide: YCDGHAIEYMAKCL
notes: as for B1
B38: Phage-873 (peptide)
peptide: YCDGHAAEFMMKCL
notes: as for B11
B39: Phage-870 (peptide)
peptide: YCDGHSGVYMWKCL
notes: as for B11

Key:
[1] = molecular target: T1, Anti-CD28 Fab (SEQ ID NOs: 696, 697); assay: phage ELISA; biotinylated anti-CD28 Fab on neutravidin plates, clonal phage supernatant, anti-M13 HRP detection
T1 construct: Biotinylated and captured on neutravidin coated plates in the phage ELISA
T1 sequence (VH, as listed by the source, chain 1 of 2): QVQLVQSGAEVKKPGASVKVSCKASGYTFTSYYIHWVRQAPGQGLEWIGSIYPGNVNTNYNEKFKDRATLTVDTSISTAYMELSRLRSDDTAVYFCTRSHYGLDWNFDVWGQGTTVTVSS
T1 sequence (VL, as listed by the source, chain 2 of 2): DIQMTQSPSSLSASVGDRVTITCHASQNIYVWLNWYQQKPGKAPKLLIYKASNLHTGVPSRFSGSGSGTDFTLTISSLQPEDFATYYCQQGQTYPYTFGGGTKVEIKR
Method: (§1) After panning, phage infected bacteria were plated out and colonies picked into 96 well blocks. Clonal phage was then amplified and separated from bacterial cells via centrifugation.
(§2) Clonal phage were harvested as crude supematants and screened via standard ELISAs. […] Prior to the addition of clonal phage, wells were incubated with blocking buffer and CD28 antigen or blocking buffer alone. Without washing or aspirating, clonal phage supematants were then added to the wells and incubated for a short time. Wells were then washed followed by detection of bound phage using a horse radish conjugated anti-M13 antibody. Clonal phage of interest were then sent for sequence analysis.

[2] = molecular target: T1, Anti-CD28 Fab (SEQ ID NOs: 696, 697); assay: phage ELISA; as above with CD28 antigen as competitor pre-incubated on the Fab coated wells
Method: as §1, §2

[3] = molecular target: T2, Anti-CD28 Fab (SEQ ID NOs: 696, 697); assay: phage ELISA on captured anti-CD28 Fab; competitor: CD28 antigen pre-incubated in the well
T2 construct: In the phage ELISA the Fab was biotinylated and captured on neutravidin coated plates
T2 sequence (VH, as listed by the source, chain 1 of 2): as the sequence (VH, as listed by the source, chain 1 of 2) above
T2 sequence (VL, as listed by the source, chain 2 of 2): as the sequence (VL, as listed by the source, chain 2 of 2) above
Method: as §1, §2

[4] = molecular target: T2, Anti-CD28 Fab (SEQ ID NOs: 696, 697); assay: phage ELISA; biotinylated anti-CD28 Fab on neutravidin plate, bound phage detected with anti-M13-HRP
Method: as §1, §2

[5] = molecular target: T3, Anti-CD28 Fab (SEQ ID NOs: 696, 697); assay: phage binding ELISA; biotinylated Fab on neutravidin plate, clonal phage supernatant, anti-M13 HRP detection;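 further: phage from clones picked after panning, added to wells pre-incubated with blocking buffer with or without CD28 antigen, then briefly incubated and washed before detection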
T3 construct: In the phage ELISA the Fab was biotinylated and captured on neutravidin coated plates
T3 sequence (VH, as listed by the source, chain 1 of 2): as the sequence (VH, as listed by the source, chain 1 of 2) above
T3 sequence (VL, as listed by the source, chain 2 of 2): as the sequence (VL, as listed by the source, chain 2 of 2) above
Method: as §1, §2

[6] = molecular target: T3, Anti-CD28 Fab (SEQ ID NOs: 696, 697); assay: phage binding ELISA on Fab coated plate; wells pre-incubated with CD28 antigen as competitor
Method: as §1, §2

Binder | Phage binding ELISA, Anti-CD28 Fab signal [1] | Phage binding ELISA, Anti-CD28 Fab signal in the presence of CD28 [2] | Anti-CD28 Fab signal in the presence of CD28 [3] | Anti-CD28 Fab signal (phage binding ELISA) [4] | Anti-CD28 Fab (SEQ ID NOs: 696, 697) signal [5] | Anti-CD28 Fab signal in the presence of CD28 [6]
B1 | 1.68 | 0.08 |  |  |  | 
B2 | 1.69 | 0.07 |  |  |  | 
B3 |  |  | 0.11 | 1.71 |  | 
B4 |  |  | 0.07 | 1.71 |  | 
B5 |  |  | 0.06 | 1.71 |  | 
B6 | 1.67 | 0.07 |  |  |  | 
B7 |  |  | 0.06 | 1.7 |  | 
B8 |  |  | 0.07 | 1.71 |  | 
B9 |  |  | 0.12 | 1.7 |  | 
B10 | 1.69 | 0.35 |  |  |  | 
B11 |  |  |  |  | 1.73 | 0.1
B12 |  |  | 0.07 | 1.71 |  | 
B13 | 1.68 | 0.07 |  |  |  | 
B14 | 1.69 | 0.06 |  |  |  | 
B15 |  |  |  |  | 1.72 | 0.08
B16 |  |  |  |  | 1.72 | 0.07
B17 |  |  | 0.05 | 1.7 |  | 
B18 |  |  | 0.11 | 1.71 |  | 
B19 |  |  |  |  | 1.72 | 0.09
B20 | 1.68 | 0.08 |  |  |  | 

Binder | Phage binding ELISA, Anti-CD28 Fab signal [1] | Phage binding ELISA, Anti-CD28 Fab signal in the presence of CD28 [2] | Anti-CD28 Fab signal in the presence of CD28 [3] | Anti-CD28 Fab signal (phage binding ELISA) [4] | Anti-CD28 Fab (SEQ ID NOs: 696, 697) signal [5] | Anti-CD28 Fab signal in the presence of CD28 [6]
B21 |  |  |  |  | 1.72 | 0.07
B22 | 1.69 | 0.06 |  |  |  | 
B23 |  |  |  |  | 1.73 | 0.06
B24 |  |  | 0.06 | 1.71 |  | 
B25 |  |  |  |  | 1.72 | 0.06
B26 |  |  | 0.1 | 1.71 |  | 
B27 |  |  |  |  | 1.73 | 0.09
B28 | 1.7 | 0.1 |  |  |  | 
B29 | 1.7 | 0.29 |  |  |  | 
B30 | 1.68 | 0.06 |  |  |  | 
B31 | 1.68 | 0.08 |  |  |  | 
B32 |  |  |  |  | 1.73 | 0.07
B33 |  |  |  |  | 1.73 | 0.06
B34 |  |  | 0.07 | 1.7 |  | 
B35 |  |  |  |  | 1.72 | 0.07
B36 |  |  | 0.08 | 1.7 |  | 
B37 | 1.69 | 0.08 |  |  |  | 
B38 |  |  |  |  | 1.72 | 0.06
B39 |  |  |  |  | 1.73 | 0.08
